# Source: PMC8792056 (2022)
# Experiments:
# [1] = target: DNAJB14-ΔDUF, FLAG-tagged (human); test: co-IP; HEK293T cells transfected with FLAG-tagged chaperone (DNAJB12 isoforms alone or with HTT-134Q-GFP or HTT-17Q-GFP; DNAJB14 forms also in cells expressing FUS-WT-YFP or FUS-R521H-YFP), lysed 48 h later in 50 mM HEPES pH 7.9, 0.5% Triton X-100, 5% glycerol, 150 mM NaCl, 2 mM EDTA; anti-FLAG M2 beads 3 h at 4 °C, 7 washes; blot with anti-HSC70/HSP70 for endogenous HSP70
# [2] = target: DNAJB14-ΔDUF, FLAG-tagged (human); test: co-IP; HEK293T cells co-transfected with FLAG-tagged DNAJB14 forms and DNAJB12-FL-mOrange; lysis in 50 mM HEPES pH 7.9, 0.5% Triton X-100, 5% glycerol, 150 mM NaCl, 2 mM EDTA; anti-FLAG M2 beads 3 h at 4 °C, 7 washes; blot with anti-RFP for mOrange, normalised to the FLAG band
# Sequence of HSP70 (P0DMV8 whole entry): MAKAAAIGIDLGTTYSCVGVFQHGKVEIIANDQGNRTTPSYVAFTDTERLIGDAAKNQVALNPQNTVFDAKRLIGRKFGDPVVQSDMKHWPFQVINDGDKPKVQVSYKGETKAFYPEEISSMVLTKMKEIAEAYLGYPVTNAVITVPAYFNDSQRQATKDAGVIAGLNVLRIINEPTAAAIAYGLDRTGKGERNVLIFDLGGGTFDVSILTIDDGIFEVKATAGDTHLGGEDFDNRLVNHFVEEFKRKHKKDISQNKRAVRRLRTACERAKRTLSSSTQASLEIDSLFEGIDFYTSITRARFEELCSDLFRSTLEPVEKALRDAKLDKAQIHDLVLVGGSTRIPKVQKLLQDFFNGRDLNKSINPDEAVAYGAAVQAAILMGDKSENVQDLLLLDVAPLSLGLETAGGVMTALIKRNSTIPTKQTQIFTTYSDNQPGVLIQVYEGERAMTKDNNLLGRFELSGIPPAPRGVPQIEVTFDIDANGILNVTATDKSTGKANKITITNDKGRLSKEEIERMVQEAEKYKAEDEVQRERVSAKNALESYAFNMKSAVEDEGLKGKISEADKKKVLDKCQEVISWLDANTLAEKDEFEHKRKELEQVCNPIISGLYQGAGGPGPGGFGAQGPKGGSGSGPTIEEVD
Molecule,interaction as percent of that of DNAJB14-FL [1] [%],fold lower interaction than with DNAJB14-FL [2] [fold]
HSP70 (from UniProt P0DMV8 1-641) (natural protein),50,–
DNAJB12-FL-mOrange (natural protein) MESNKDEAERCISIALKAIQSNQPDRALRFLEKAQRLYPTPRVRALIESLNQKPQTAGDQPPPTDTTHATHRKAGGTDAPSANGEAGGESTKGYTAEQVAAVKRVKQCKDYYEILGVSRGASDEDLKKAYRRLALKFHPDKNHAPGATEAFKAIGTAYAVLSNPEKRKQYDQFGDDKSQAARHGHGHGDFHRGFEADISPEDLFNMFFGGGFPSSNVHVYSNGRMRYTYQQRQDRRDNQGDGGLGVFVQLMPILILILVSALSQLMVSSPPYSLSPRPSVGHIHRRVTDHLGVVYYVGDTFSEEYTGSSLKTVERNVEDDYIANLRNNCWKEKQQKEGLLYRARYFGDTDMYHRAQKMGTPSCSRLSEVQASLHG,–,3
